From PMC4505335, “Selective targeting of PPARγ by the natural product chelerythrine with a unique binding mode and improved antidiabetic potency” (Scientific Reports, 2015) come the findings set out here.

Where no end group is shown, it is not given here. The star is where a group is joined. Biotin = O=C1N[C@H]2[C@H](CS[C@H]2CCCCC(=O)*)N1

The target in one assay is T1, PPARγ (Homo sapiens, UniProt P37231).
T1 construct: gene PPARG; no SRC1 peptide; In-house His6-LBD 206-477 (E. coli) used for crystal and kinase assay
T1 sequence (P37231 234-505 limits assumed): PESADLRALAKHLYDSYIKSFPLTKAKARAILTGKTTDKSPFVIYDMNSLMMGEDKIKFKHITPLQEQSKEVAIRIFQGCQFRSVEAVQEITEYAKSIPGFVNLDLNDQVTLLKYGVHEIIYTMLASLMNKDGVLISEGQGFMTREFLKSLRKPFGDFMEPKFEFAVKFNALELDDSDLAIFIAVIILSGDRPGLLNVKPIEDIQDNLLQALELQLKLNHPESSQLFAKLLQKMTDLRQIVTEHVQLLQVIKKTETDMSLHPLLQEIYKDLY
Nature of the assay: crystal structure at […] Å; Lantha TR-FRET competitive binding; AlphaScreen. Background: TR-FRET usually uses a lanthanide donor and a delayed reading to cut background.

The target in assay [1] is T2, Human PPARγ LBD (residues 206–477) (human, UniProt P37231-2 206-477).
T2 construct: The tag is detected in the AlphaScreen (hexahistidine detection kit); also called NR1C3; source: E. coli BL21(DE3), purified (Ni HiTrap HP, SP-Sepharose); not shown: His6, N-terminal, kept
T2 sequence (looked up): T1 sequence (P37231 234-505 limits assumed)
Description: AlphaScreen or HTRF; hexahistidine detection kit; about 20–40 nmol/l His6-PPARγ LBD and 20 nmol/l biotinylated peptide, 5 μg/ml donor and acceptor beads; 50 mmol/l MOPS, 50 mmol/l NaF, 0.05 mmol/l CHAPS, 0.1 mg/ml BSA, pH 7.4; with rosiglitazone (1 μmol/l, and dose curves). Conditions: both partners purified. For orientation: In Alpha technology, singlet oxygen from a donor bead excites a nearby acceptor bead.

Assay [2] concerns the target T2, Human PPARγ LBD (residues 206–477). Description: AlphaScreen or HTRF; hexahistidine detection kit; about 20–40 nmol/l His6-PPARγ LBD and 20 nmol/l biotinylated peptide, 5 μg/ml donor and acceptor beads; 50 mmol/l MOPS, 50 mmol/l NaF, 0.05 mmol/l CHAPS, 0.1 mg/ml BSA, pH 7.4; with chelerythrine (5 μmol/l, and dose curves). The settings on record: both partners purified.

Broadly, the IC50 is the concentration that gives 50% inhibition. A low value points to greater potency in that assay.

`COc1ccc2c(c[n+](C)c3c4cc5c(cc4ccc23)OCO5)c1OC` [CHE, chelerythrine] showed a 50% inhibitory concentration (IC50) on PPARγ of 0.566 µM.

Biotin-SPSSHSSLTERHKILHRLLQEGSP [SRC1 coactivator peptide, N-terminally biotinylated]: in assay [1], the binding result is “binds”.

Take Biotin-QEPVSPKKKENALLRYLLDKDDTKD [SRC2 coactivator peptide, N-terminally biotinylated]: the binding result in assay [1] was “binds”.

B1: NCoR-2, a corepressor peptide from NCoR, N-terminally biotinylated (peptide)
peptide: Biotin-GHSFADPASNLGLEDIIRKALMGSF
notes: second corepressor motif peptide from NCoR (nuclear receptor corepressor 1; not the gene NCOR2/SMRT); also called NCoR-2 corepressor
Regarding B1, the binding result in assay [2] is “binds”.
